From US20260035464A1 (STAIDSON BIOPHARMA, published 2026)

What was measured:
[1] = biological target: T1, human BTLA (Uniprot Q7Z6A9) expressed on cells (human, UniProt Q7Z6A9 31-289); experiment: flow cytometry blocking on huBTLA-overexpressing Expi293 cells; competitor human HVEM-mouse IgG2a Fc
T1 construct: whole, on cells; also called huBTLA-overexpressing Expi293 cells
Protocol: (§1) Expi293 cells stably overexpressing huBTLA were incubated with chimeric anti-BTLA antibody 83F2 or 86B7 for 30 minutes at 4° C. The cells were washed, and then incubated with human HVEM-mouse IgG2a Fc recombinant protein (Acro Biosystems, cat #HVM-H5255) at […] concentration for 20 minutes at 4° C. The human HVEM bindings were detected by goat anti-mouse Alexa 488 secondary antibody (ThermoFisher, cat #A-11029). Cells were washed and acquired by flow cytometry with Attune. Data were analyzed with FlowJo software. BTLA binding is represented as MFI.

[2] = biological target: T2, human BTLA extracellular domain with C-terminal mouse IgG2a Fc tag (human; mouse, UniProt Q7Z6A9 31-157); experiment: blocking ELISA, huBTLA-mIgG2a Fc coated; competitor huHVEM-His (2 ug/ml)
T2 construct: also called huBTLA with mIgG2a Fc tag; not shown: mouse IgG2a Fc, C-terminal
T2 sequence: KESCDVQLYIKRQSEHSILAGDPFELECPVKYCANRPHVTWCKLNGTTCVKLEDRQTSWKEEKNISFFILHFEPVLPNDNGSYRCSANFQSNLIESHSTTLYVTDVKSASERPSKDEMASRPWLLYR
Protocol: HVEM blocking by purified recombinant chimeric antibodies by ELISA: Human HVEM (huHVEM) blocking ELISA was performed on purified recombinant chimeric anti-BTLA antibodies. Briefly, 384-well, clear flat bottom high binding plates (Corning, cat #3700) were coated overnight at 4° C. with 0.333 μg/mL purified huBTLA with mIgG2a Fc tag in PBS (coating solution). After removing the coating solution, the plates were blocked by adding blocking buffer and incubated at 37° C. for 1 hour. Plates were then washed 3 times with wash buffer. Serial dilution of purified chimeric antibodies in PBS were added to individual well followed by incubation at 37° C. for 1 hour. Plates were washed 3 times with wash buffer. Then 30 μL per well of 2 μg/ml human HVEM with His tag (Sino Biological, cat #10334-H08H) in assay buffer was added into the reaction and incubated for 1 hour. Plates were washed 3 times with wash buffer. Then 30 μL per well of mouse anti-his-AP (Southern Biotech, cat: 4603-04) at 1:500 dilution in ELISA diluent was added, and incubated at 37° C. for 30 min, then the plates were washed 5 times with wash buffer and developed for 30 minutes with 30 μL per well of pNPP substrate. Plates were analyzed with a Bio-TEK at 405 nm. The blocking IC₅₀ value represents the antibody concentration that inhibited 50% of huHVEM binding to coated human BTLA.

[3] = biological target: T1, human BTLA (Uniprot Q7Z6A9) expressed …; experiment: flow cytometry blocking assay on huBTLA-overexpressing Expi293 cells, antibody titrated, soluble human HVEM-mouse IgG2a Fc detected
Protocol: as §1
FACS based blocking assays of humanized anti-BTLA antibodies were performed as described above in Example 3.

B1: chimeric anti-BTLA antibody 86B7 (antibody, V domains shown)
VH: QVTLKESGPGILQPSQTLSLTCSFSGFSLSTFGMGVSWIRQPSGKGLEWLAHIYWDDDKRFNPSLKSRLSISKDTSNNQVFLKITTVDTADTATYYCARGNWDGETYFDYWGQGTTLTVSS
VL: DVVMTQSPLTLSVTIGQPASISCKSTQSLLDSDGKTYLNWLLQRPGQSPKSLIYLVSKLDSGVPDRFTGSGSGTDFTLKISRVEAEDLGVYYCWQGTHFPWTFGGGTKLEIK
[1]
  IC50: 0.259 nM
[2]
  IC50: 1.02 nM
[3]
  IC50 (read off the curve): ~0.4 nM
